The text below walks through data of paper PMC11574045, “A cofactor-induced repressive type of transcription factor condensation can be induced by synthetic peptides to suppress tumorigenesis” (The EMBO Journal, 2024).

This experiment concerns HEK293FT cells transfected with TF library. The experiment is described as follows: Screening of TF condensates based on fluorescent puncta. The format is cell-based. Particulars: Figure 1B numerical data; TF library screen, one value per transcriptional factor. The method in brief:
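Puncta scoring used automated confocal imaging of fifty random fields per well, after anti-Flag or anti-GAL4 immunofluorescence (Alexa 488) in PFA-fixed cells. HEK293FT cells carried TF library plasmids delivered with PEI (1.6 μg/ml DNA). At 60 h they were switched for 12 h to glucose-containing or glucose-free medium.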

B1: CDKN2C (protein, UniProt P42773 1-168, looked up)
Cyclin-dependent kinase 4 …: MAEPWGNELASAAARGDLEQLTSLLQNNVNVNAQNGFGRTALQVMKLGNPEIARRLLLRGANPDLKDRTGFAVIHDAARAGFLDTLQTLLEFQADVNIEDNEGNLPLHLAAKEGHLRVVEFLVKHTASNVGHRNHKGDTACDLARLYGRNEVVSLMQANGAGGATNLQ
B1: the “Z score of condensed fraction” value is reported as -0.5488.

B2: ZNF567 (protein, UniProt Q8N184 1-647, looked up)
Zinc finger protein 567: MAQGSVSFNDVTVDFTQEEWQHLDHAQKTLYMDVMLENYCHLISVGCHMTKPDVILKLERGEEPWTSFAGHTCLEENWKAEDFLVKFKEHQEKYSRSVVSINHKKLVKEKSKIYEKTFTLGKNPVNSKNLPPEYDTHGRILKNVSELIISNLNPARKRLSEYNGYGKSLLSTKQETTHPEVKSHNQSARAFSHNEVLMQYQKTETPAQSFGYNDCEKSFLQRGGLITHSRPYKGENPSVYNKKRRATNIEKKHTCNECGKSFCRKSVLILHQGIHSEEKPYQCHQCGNAFRRKSYLIDHQRTHTGEKPFVCNECGKSFRLKTALTDHQRTHTGEKSYECLQCRNAFRLKSHLIRHQRTHTGEKPYECNDCGKSFRQKTTLSLHQRIHTGEKPYICKECGKSFHQKANLTVHQRTHTGEKPYICNECGKSFSQKTTLALHEKTHNEEKPYICSECGKSFRQKTTLVAHQRTHTGEKSYECPHCGKAFRMKSYLIDHHRTHTGEKPYECNECGKSFSQKTNLNLHQRIHTGEKPYVCNECGKSFRQKATLTVHQKIHTGQKSYECPQCGKAFSRKSYLIHHQRTHTGEKPYKCSECGKCFRQKTNLIVHQRTHTGEKPYVCNECGKSFSYKRNLIVHQRTHKGENIEMQ
Consider B2, for which the “Z score of condensed fraction” value is listed as -0.7114.

B3: ZNF563 (protein, UniProt Q8TA94 1-476, looked up)
Zinc finger protein 563: MDAVAFEDVAVNFTQEEWALLGPSQKNLYRYVMQETIRNLDCIRMIWEEQNTEDQYKNPRRNLRCHMVERFSESKDSSQCGETFSLIRDSIVNNSICPGEDPCQSAECEEVIMGHLSLNSHIRVDSGHKPHEYQEYGEKPHTHKQRGKAFSYHHSFQSRGRPHTGKKRYECKECGKTFSSRRNLRRHMVVQGGNRPYKCKLCGKAFFWPSLLRMHERTHTGEKPYECKQCSKAFPFYSSYRRHERMHTGEKPYECKQCSKALPDSSSYIRHERTHTGEKPYTCKQCGKAFSVSSSLRRHETTHSAEKPYECKQCGKTFHHLGSFQIHMKRHTGDRPHKCKICGKGFDRPSLVRYHERIHTGEKPYECKQCGKTLSHSSSFRRHMIMHTGGGPHKCKICGKAFVYPSVCQRHEKSHSGEKPYECKQCGKALSHSSSFRRHMVMHTGDGPNKCKVCGKAFVYPSVCQRHEKTHWRETI
For B3, the “Z score of condensed fraction” value is listed as -0.4635.

B4: ZNF576 (protein, UniProt Q9H609 1-170, looked up)
Zinc finger protein 576: MEDPNPEENMKQQDSPKERSPQSPGGNICHLGAPKCTRCLITFADSKFQERHMKREHPADFVAQKLQGVLFICFTCARSFPSSKALITHQRSHGPAAKPTLPVATTTAQPTFPCPDCGKTFGQAVSLRRHRQMHEVRAPPGTFACTECGQDFAQEAGLHQHYIRHARGEL
Take B4: the “Z score of condensed fraction” value is -0.3795.

B5: ZNF586 (protein, UniProt Q9NXT0 1-402, looked up)
Zinc finger protein 586: MAAAAALRAPAQSSVTFEDVAVNFSLEEWSLLNEAQRCLYRDVMLETLTLISSLGCWHGGEDEAAPSKQSTCIHIYKDQGGHSGERPYECGEYRKLFKNKSCLTEPRRDHKHRNVRTGERPYECSKYGKLFHQKPTLHIHERFHTGQKTYECSECGKSFHQSSSLLQRQTLHTRERPYECIECGKAFAEKSSLINHRKVHSGAKRYECNECGKSFAYTSSLIKHRRIHTGERPYECSECGRSFAENSSLIKHLRVHTGERPYECVECGKSFRRSSSLLQHQRVHTRERPYECSECGKSFSLRSNLIHHQRVHTGERHECGQCGKSFSRKSSLIIHLRVHTGERPYECSDCGKSFAENSSLIKHLRVHTGERPYECIDCGKSFRHSSSFRRHQRVHTGMRPYK
For the molecule B5, the “Z score of condensed fraction” value came out at 0.1456.

B6: ZNF671 (protein, UniProt Q8TAW3 1-534, looked up)
Zinc finger protein 671: MLSPVSRDASDALQGRKCLRPRSRRLPLPAAVRAHGPMAELTDSARGCVVFEDVFVYFSREEWELLDDAQRLLYHDVMLENFALLASLGIAFSRSRAVMKLERGEEPWVYDQVDMTSATEREAQRGLRPGCWHGVEDEEVSSEQSIFVAGVSEVRTLMAELESHPCDICGPILKDTLHLAKYHGGKARQKPYLCGACGKQFWFSTDFDQHQNQPNGGKLFPRKEGRDSVKSCRVHVPEKTLTCGKGRRDFSATSGLLQHQASLSSMKPHKSTKLVSGFLMGQRYHRCGECGKAFTRKDTLARHQRIHTGERPYECNECGKFFSQSYDLFKHQTVHTGERPYECSECGKFFRQISGLIEHRRVHTGERLYQCGKCGKFFSSKSNLIRHQEVHTGARPYVCSECGKEFSRKHTLVLHQRTHTGERPYECSECGKAFSQSSHLNVHWRIHSSDYECSRCGKAFSCISKLIQHQKVHSGEKPYECSKCGKAFTQRPNLIRHWKVHTGERPYVCSECGREFIRKQTLVLHQRVHAGEKL
For the molecule B6, the “Z score of condensed fraction” value is listed as -0.9445.

B7: ZNF555 (protein, UniProt Q8NEP9 1-628, looked up)
Zinc finger protein 555: MDSVVFEDVAVDFTLEEWALLDSAQRDLYRDVMLETFQNLASVDDETQFKASGSVSQQDIYGEKIPKESKIATFTRNVSWASVLGKIWDSLSIEDQTTNQGRNLSRNHGLERLCESNDQCGEALSQIPHLNLYKKIPPGVKQYEYNTYGKVFMHRRTSLKSPITVHTGHKPYQCQECGQAYSCRSHLRMHVRTHNGERPYVCKLCGKTFPRTSSLNRHVRIHTAEKTYECKQCGKAFIDFSSLTSHLRSHTGEKPYKCKECGKAFSYSSTFRRHTITHTGEKPYKCKECAEAFSYSSTFRRHMISHTGEKPHKCKECGEAFSYSSAFRRHMITHTGEKPYECKQCGKTFIYLQSFRRHERIHTGEKPYECKQCGKTFIYPQSFRRHERTHGGEKPYECNQCGKAFSHPSSFRGHMRVHTGEKPYECKQCGKTFNWPISLRKHMRTHTREKPYECKQCGKAFSLSACFREHVRMHPEDKSYECKLCGKAFYCHISLQKHMRRHTAEKLYKCKQCGKAFSWPELLQQHVRTHTVEKPYECKECGKVFKWPSSLPIHMRLHTGEKPYQCKHCGKAFNCSSSLRRHVRIHTTEKQYKCNVGHPPANEFMCSASEKSHQERDLIKVVNMVLPL
For the molecule B7, the “Z score of condensed fraction” value is -0.894.

B8: ZNF581 (protein, UniProt Q9P0T4 1-197, looked up)
Zinc finger protein 581: MLVLPSPCPQPLAFSSVETMEGPPRRTCRSPEPGPSSSIGSPQASSPPRPNHYLLIDTQGVPYTVLVDEESQREPGASGAPGQKKCYSCPVCSRVFEYMSYLQRHSITHSEVKPFECDICGKAFKRASHLARHHSIHLAGGGRPHGCPLCPRRFRDAGELAQHSRVHSGERPFQCPHCPRRFMEQNTLQKHTRWKHP
Regarding B8, the “Z score of condensed fraction” value is given as -0.1395.

B9: CDX1 (protein, UniProt P47902 1-265, looked up)
Homeobox protein CDX-1: MYVGYVLDKDSPVYPGPARPASLGLGPQAYGPPAPPPAPPQYPDFSSYSHVEPAPAPPTAWGAPFPAPKDDWAAAYGPGPAAPAASPASLAFGPPPDFSPVPAPPGPGPGLLAQPLGGPGTPSSPGAQRPTPYEWMRRSVAAGGGGGSGKTRTKDKYRVVYTDHQRLELEKEFHYSRYITIRRKSELAANLGLTERQVKIWFQNRRAKERKVNKKKQQQQQPPQPPMAHDITATPAGPSLGGLCPSNTSLLATSSPMPVKEEFLP
Turning to B9, the “Z score of condensed fraction” value turned out to be 2.938.
